According to the supplement of paper PMC10065799, “High-throughput profiling of sequence recognition by tyrosine kinases and SH2 domains using bacterial peptide display” (eLife, 2023):

Columns and labels:
EPHB1 = EPHB1 (UniProt P54762); test: phosphorylation enrichment, bacterial display (enrichment ratio); higher = better substrate or ligand; peptides without Tyr show the background
Fes = Fes (UniProt P07332); test: as above
Fyn = Fyn (UniProt P06241); test: as above
Hck = Hck (UniProt P08631); test: as above
EPHB2 = EPHB2 (UniProt P29323); test: as above
c-Src = test: as above
MERTK = MERTK (UniProt Q12866); test: as above
FGFR3 = FGFR3 (UniProt P22607); test: as above
Jak2 = Jak2 (UniProt O60674); test: as above
Fer (mouse) = test: as above
AncSZ = test: as above
c-Abl (mouse) = test: as above
FGFR1 = FGFR1 (UniProt P11362); test: as above
Grb2 SH2 = Grb2 SH2 (UniProt P62993); test: SH2 binding enrichment of the phosphorylated peptide, bacterial display (enrichment ratio); higher = better substrate or ligand; peptides without Tyr show the background
SHP2-C SH2 = test: as above
c-Src SH2 = test: as above
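Wherever SH2 binding enrichment of the phosphorylated peptide, bacterial display is given: peptide library displayed on the E. coli surface as eCPX fusions, selected cells deep-sequenced, score is each peptide's frequency after selection divided by its frequency in the input.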
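Wherever phosphorylation enrichment, bacterial display is given: 11-residue human phosphosite peptides and single-mutation variants displayed on the E. coli surface, counted by deep sequencing, each peptide's frequency after selection divided by its frequency in the unselected input library; frequency after pTyr selection over input frequency; kinase dosed for 20-30% of maximal phosphorylation in three min.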

Sequence of EPHB1 (P54762 whole entry, looked up): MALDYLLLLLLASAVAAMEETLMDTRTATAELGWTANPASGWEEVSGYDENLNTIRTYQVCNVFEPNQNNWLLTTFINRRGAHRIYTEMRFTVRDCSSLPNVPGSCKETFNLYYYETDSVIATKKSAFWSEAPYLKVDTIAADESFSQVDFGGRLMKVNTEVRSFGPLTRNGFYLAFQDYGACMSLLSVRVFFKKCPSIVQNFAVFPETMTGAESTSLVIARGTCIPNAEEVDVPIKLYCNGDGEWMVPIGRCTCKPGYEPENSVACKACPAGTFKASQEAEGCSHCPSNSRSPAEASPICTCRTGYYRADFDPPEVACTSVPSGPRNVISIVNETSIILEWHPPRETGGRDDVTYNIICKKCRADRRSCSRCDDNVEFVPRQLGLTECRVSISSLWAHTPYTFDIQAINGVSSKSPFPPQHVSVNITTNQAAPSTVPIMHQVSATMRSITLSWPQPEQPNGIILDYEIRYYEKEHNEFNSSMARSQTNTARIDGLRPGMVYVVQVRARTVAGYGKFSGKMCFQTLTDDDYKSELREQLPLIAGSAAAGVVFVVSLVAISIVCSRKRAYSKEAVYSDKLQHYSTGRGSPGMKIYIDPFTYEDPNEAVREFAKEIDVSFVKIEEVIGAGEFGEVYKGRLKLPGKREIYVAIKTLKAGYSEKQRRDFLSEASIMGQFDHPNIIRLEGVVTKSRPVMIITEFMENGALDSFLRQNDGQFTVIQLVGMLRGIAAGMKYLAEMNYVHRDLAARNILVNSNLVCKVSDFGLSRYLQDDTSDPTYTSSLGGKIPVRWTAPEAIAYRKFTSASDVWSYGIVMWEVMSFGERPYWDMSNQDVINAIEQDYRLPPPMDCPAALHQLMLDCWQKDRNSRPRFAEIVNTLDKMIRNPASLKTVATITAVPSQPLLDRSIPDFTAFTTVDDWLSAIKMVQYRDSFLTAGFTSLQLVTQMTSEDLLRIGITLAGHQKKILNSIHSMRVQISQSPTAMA
Sequence of Grb2 SH2 (P62993 whole entry, looked up): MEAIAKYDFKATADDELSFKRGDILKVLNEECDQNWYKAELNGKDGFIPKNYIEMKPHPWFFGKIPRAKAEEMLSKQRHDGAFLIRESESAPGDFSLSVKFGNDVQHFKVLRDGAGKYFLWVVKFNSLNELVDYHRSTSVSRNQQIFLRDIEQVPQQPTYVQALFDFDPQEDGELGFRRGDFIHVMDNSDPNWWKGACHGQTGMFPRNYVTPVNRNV
Sequence of MERTK (Q12866 whole entry, looked up): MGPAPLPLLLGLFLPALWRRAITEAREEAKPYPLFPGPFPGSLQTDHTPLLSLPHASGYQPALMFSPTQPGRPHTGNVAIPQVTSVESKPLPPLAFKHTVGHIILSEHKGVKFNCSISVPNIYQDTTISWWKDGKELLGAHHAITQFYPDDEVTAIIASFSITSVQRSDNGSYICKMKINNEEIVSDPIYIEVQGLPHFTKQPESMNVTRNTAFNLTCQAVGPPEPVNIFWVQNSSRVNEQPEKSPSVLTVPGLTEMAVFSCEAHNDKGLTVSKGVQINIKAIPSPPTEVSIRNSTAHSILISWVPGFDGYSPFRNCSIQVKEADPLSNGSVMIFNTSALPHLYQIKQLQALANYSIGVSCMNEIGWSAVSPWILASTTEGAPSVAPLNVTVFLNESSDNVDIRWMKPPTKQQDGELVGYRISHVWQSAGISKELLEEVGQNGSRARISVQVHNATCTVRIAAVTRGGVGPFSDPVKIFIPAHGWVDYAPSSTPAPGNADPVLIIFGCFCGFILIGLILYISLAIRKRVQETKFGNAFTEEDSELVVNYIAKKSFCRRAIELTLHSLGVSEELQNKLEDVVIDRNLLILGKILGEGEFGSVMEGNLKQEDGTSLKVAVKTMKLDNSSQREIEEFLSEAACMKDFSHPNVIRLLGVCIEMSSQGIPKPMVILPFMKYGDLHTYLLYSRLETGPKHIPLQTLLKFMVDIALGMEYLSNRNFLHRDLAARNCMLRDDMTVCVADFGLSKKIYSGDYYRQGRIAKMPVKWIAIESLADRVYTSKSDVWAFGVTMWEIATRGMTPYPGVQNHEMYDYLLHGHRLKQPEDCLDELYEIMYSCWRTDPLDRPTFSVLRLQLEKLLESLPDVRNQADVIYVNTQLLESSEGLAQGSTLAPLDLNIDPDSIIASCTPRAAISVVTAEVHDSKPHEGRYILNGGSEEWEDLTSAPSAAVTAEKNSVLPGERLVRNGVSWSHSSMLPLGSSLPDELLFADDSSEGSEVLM
Sequence of Hck (P08631 whole entry, looked up): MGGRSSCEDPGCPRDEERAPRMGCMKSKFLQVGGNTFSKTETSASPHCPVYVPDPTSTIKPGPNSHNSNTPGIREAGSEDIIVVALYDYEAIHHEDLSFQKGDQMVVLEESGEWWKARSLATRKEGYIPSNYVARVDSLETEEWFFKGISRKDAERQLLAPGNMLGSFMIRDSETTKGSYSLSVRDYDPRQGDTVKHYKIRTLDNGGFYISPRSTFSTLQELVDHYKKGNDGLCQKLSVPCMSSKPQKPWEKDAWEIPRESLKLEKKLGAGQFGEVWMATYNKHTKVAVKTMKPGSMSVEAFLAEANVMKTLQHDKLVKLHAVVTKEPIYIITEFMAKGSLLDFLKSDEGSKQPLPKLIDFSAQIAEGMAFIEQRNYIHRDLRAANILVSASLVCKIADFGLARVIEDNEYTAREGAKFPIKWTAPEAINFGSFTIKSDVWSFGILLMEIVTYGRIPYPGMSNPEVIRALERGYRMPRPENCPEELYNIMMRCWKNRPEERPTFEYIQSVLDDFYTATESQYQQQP
Sequence of Fyn (P06241 whole entry, looked up): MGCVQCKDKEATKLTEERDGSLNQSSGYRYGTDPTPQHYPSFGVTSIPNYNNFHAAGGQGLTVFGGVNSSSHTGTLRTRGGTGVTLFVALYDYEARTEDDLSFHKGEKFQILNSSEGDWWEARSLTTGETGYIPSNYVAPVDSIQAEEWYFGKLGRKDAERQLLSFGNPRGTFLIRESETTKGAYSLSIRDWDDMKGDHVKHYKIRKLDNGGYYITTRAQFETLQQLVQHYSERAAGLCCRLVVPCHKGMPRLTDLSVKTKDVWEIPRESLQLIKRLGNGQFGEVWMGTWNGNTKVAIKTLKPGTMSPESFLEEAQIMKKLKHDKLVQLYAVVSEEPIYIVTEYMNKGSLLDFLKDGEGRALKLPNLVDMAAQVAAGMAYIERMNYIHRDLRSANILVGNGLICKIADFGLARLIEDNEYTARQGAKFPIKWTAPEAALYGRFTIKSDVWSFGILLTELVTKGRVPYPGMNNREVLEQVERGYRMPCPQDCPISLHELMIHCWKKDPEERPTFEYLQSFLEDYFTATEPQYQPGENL
Sequence of FGFR3 (P22607 whole entry, looked up): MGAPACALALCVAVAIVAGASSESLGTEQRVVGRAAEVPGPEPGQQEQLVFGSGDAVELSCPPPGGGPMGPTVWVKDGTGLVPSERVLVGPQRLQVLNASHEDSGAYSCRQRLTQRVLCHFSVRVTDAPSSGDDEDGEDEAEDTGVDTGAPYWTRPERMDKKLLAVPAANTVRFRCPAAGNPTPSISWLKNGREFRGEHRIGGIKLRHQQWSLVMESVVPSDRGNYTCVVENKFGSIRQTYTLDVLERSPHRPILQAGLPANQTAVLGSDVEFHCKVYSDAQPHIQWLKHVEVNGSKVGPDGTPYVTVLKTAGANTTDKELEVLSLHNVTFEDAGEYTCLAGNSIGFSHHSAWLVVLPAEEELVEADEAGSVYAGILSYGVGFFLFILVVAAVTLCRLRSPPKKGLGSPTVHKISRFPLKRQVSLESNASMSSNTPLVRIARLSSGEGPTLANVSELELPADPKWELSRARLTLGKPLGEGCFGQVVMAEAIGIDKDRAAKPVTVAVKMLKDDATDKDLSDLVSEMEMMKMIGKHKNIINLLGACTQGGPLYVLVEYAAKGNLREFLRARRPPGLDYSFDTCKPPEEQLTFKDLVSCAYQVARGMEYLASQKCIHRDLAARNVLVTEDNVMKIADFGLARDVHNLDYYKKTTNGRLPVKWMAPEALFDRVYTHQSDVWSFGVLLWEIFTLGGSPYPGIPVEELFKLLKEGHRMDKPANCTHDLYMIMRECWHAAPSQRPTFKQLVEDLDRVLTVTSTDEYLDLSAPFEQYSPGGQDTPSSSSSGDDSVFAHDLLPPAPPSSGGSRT
Sequence of FGFR1 (P11362 whole entry, looked up): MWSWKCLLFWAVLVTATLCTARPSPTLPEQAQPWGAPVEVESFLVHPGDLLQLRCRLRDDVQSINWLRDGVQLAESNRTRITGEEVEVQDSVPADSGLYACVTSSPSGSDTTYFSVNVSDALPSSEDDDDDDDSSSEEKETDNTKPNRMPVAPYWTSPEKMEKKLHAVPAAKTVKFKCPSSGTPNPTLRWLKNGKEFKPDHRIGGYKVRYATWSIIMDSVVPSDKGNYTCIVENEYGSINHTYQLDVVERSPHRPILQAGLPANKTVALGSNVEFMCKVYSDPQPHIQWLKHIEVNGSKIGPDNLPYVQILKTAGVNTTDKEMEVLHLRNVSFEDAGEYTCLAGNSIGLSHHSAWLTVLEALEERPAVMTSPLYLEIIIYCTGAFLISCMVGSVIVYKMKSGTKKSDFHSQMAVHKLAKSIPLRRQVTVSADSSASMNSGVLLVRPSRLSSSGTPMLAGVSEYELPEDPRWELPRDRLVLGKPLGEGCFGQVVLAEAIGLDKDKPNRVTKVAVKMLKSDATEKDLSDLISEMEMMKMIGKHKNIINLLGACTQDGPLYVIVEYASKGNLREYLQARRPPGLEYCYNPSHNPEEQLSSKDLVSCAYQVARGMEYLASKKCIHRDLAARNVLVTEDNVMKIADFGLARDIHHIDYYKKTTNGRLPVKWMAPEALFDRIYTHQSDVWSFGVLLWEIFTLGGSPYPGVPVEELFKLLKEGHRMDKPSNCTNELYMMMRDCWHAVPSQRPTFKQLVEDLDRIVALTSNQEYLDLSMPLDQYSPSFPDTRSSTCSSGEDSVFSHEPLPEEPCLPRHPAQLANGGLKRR

Sequence | phosphorylation enrichment (EPHB1) | phosphorylation enrichment (Fes) | phosphorylation enrichment (Fyn) | phosphorylation enrichment (Hck) | phosphorylation enrichment (EPHB2) | phosphorylation enrichment (c-Src) | phosphorylation enrichment (MERTK) | phosphorylation enrichment (FGFR3) | phosphorylation enrichment (Jak2) | phosphorylation enrichment (Fer (mouse)) | phosphorylation enrichment (AncSZ) | phosphorylation enrichment (c-Abl (mouse)) | phosphorylation enrichment (FGFR1) | SH2 binding enrichment (Grb2 SH2) | SH2 binding enrichment (SHP2-C SH2) | SH2 binding enrichment (c-Src SH2)
GKFRMYVAVWT [F13A1_Y161] | 0.508 | 1.1 | 0.377 | 0.365 | 0.604 | 0.342 | 0.357 | 0.665 | 1.13 | 0.501 | 1.14 | 0.762 | 0.479 | 0.997 | 0.619 | 0.5
SARFPYLMAEK [LDHB_Y173_R172P] | 0.373 | 0.687 | 0.315 | 0.422 | 0.416 | 0.483 | 0.325 | 0.455 | 0.504 | 0.389 | 0.604 | 0.361 | 0.387 | 0.912 | 0.523 | 0.579
RPFRPYIIRGM [LRP5_Y1531_YF] | 0.633 | 1.2 | 0.611 | 0.655 | 0.709 | 0.647 | 0.781 | 0.88 | 0.748 | 0.456 | 1.14 | 0.532 | 1.03 | 0.735 | 0.625 | 0.482
SWSTSYSGYRC [NKAPL_Y91_Y96C] | 0.551 | 0.993 | 0.462 | 0.552 | 0.547 | 0.848 | 0.443 | 0.62 | 0.98 | 0.532 | 0.944 | 0.751 | 0.585 | 0.914 | 0.798 | 0.63
VTPVMYTYDEY [COL10A1_Y623_G618V] | 0.633 | 1.05 | 1.61 | 0.932 | 0.798 | 2.22 | 0.912 | 0.795 | 0.917 | 0.542 | 1.15 | 0.568 | 0.637 | 1.05 | 0.685 | 2.44
EGTGHYLCNAC [GATA5_Y208_D203E] | 0.354 | 0.57 | 0.411 | 0.352 | 0.375 | 0.395 | 0.54 | 0.566 | 0.505 | 0.378 | 0.524 | 0.525 | 0.462 | 1.09 | 0.81 | 0.445
PLLLSYFLIKW [NUP160_Y773_YF] | 0.909 | 1.8 | 0.561 | 0.761 | 0.622 | 0.684 | 0.558 | 1.73 | 3.01 | 0.37 | 1.37 | 1.33 | 1.53 | 1.13 | 1.04 | 0.662
KPGLKYVTYGN [GALNTL5_Y404] | 0.38 | 0.547 | 0.39 | 0.484 | 0.624 | 0.363 | 0.345 | 0.409 | 0.498 | 0.379 | 0.505 | 0.389 | 0.394 | 1.34 | 2.11 | 1.11
AHAGEYGEEAL [HBA1_Y25_A27E] | 0.664 | 1.47 | 0.576 | 0.821 | 0.736 | 0.582 | 0.544 | 0.793 | 1.35 | 0.615 | 1.25 | 1.01 | 0.66 | 0.745 | 0.599 | 0.473
RGFRQYAFDGK [HLA-A_Y140_D140Y_YF] | 0.715 | 0.66 | 0.546 | 0.711 | 0.51 | 0.653 | 0.584 | 0.779 | 0.381 | 0.425 | 0.77 | 0.595 | 0.557 | 0.832 | 0.794 | 0.534
SMAKYYASGIA [ACADSB_Y373_E376G] | 0.408 | 0.622 | 0.331 | 0.463 | 0.7 | 0.394 | 0.381 | 0.469 | 0.665 | 0.444 | 0.497 | 0.599 | 0.437 | 0.771 | 0.791 | 0.578
YQLPYYNMVPS [BMPR1A_Y458] | 2.58 | 0.802 | 3.36 | 3.28 | 2.52 | 5.1 | 8.84 | 10.5 | 10.4 | 5.67 | 2.75 | 3.96 | 13.1 | 11.4 | 1.73 | 5.08
HGDDDYDDPEL [CLNK_Y69_S65G] | 0.756 | 2 | 0.69 | 0.743 | 0.753 | 0.477 | 0.667 | 1.02 | 1.39 | 0.717 | 1.91 | 0.745 | 0.91 | 0.99 | 0.551 | 0.565
RIVEIYTRRLQ [GCH1_Y175_S176T] | 0.503 | 0.949 | 0.543 | 0.613 | 0.462 | 1.01 | 0.605 | 0.632 | 0.637 | 0.436 | 0.936 | 0.517 | 0.515 | 0.756 | 0.58 | 0.325
NTSKMYIPHTD [EXPH5_Y782_D777N] | 0.35 | 0.609 | 0.45 | 0.462 | 0.423 | 0.474 | 0.462 | 0.523 | 0.562 | 0.469 | 0.663 | 0.532 | 0.415 | 0.897 | 0.68 | 0.386
DSRRDYVSQFE [APOA1_Y53_G50R] | 0.456 | 0.709 | 0.409 | 0.478 | 0.447 | 0.43 | 0.464 | 0.503 | 0.645 | 0.387 | 0.762 | 0.567 | 0.542 | 0.803 | 0.524 | 0.531
AFRRGYFDEEM [PLEC_Y2971_YF] | 0.514 | 1.29 | 0.622 | 0.599 | 0.616 | 0.6 | 0.551 | 0.673 | 1.7 | 0.445 | 1.58 | 0.763 | 0.633 | 0.73 | 0.334 | 0.636

Sequence | phosphorylation enrichment (EPHB1) | phosphorylation enrichment (Fes) | phosphorylation enrichment (Fyn) | phosphorylation enrichment (Hck) | phosphorylation enrichment (EPHB2) | phosphorylation enrichment (c-Src) | phosphorylation enrichment (MERTK) | phosphorylation enrichment (FGFR3) | phosphorylation enrichment (Jak2) | phosphorylation enrichment (Fer (mouse)) | phosphorylation enrichment (AncSZ) | phosphorylation enrichment (c-Abl (mouse)) | phosphorylation enrichment (FGFR1) | SH2 binding enrichment (Grb2 SH2) | SH2 binding enrichment (SHP2-C SH2) | SH2 binding enrichment (c-Src SH2)
HIAKVYRRDNP [HARS1_Y156] | 0.36 | 0.989 | 0.775 | 0.592 | 0.463 | 1.02 | 0.734 | 0.772 | 0.659 | 0.507 | 0.982 | 1.24 | 0.451 | 1.36 | 0.722 | 0.747
LTFHMYADPNF [SOS1_Y618_YF] | 1.67 | 1.97 | 0.577 | 0.711 | 1.45 | 0.755 | 0.843 | 1.1 | 1.61 | 0.901 | 1.81 | 1.99 | 0.715 | 0.854 | 0.816 | 6.02
KDLPNYNWNSF [KISS1_Y112] | 0.505 | 0.855 | 0.446 | 0.416 | 0.63 | 0.507 | 0.491 | 0.521 | 0.767 | 0.604 | 0.904 | 0.639 | 0.432 | 0.769 | 0.441 | 0.459
IFHLSYLHNCE [PDE6B_Y227_YF] | 0.589 | 1.26 | 0.546 | 0.512 | 0.566 | 0.431 | 0.436 | 0.856 | 0.956 | 0.562 | 0.985 | 0.782 | 0.494 | 1.18 | 0.894 | 0.862
PLDGEYVTLQI [TP53_Y327_F328V] | 0.802 | 1.32 | 0.984 | 0.922 | 0.789 | 0.919 | 0.477 | 1.57 | 1.37 | 0.609 | 1.56 | 1.17 | 1.75 | 0.615 | 0.498 | 0.349
FTRNFYVQAVL [CYBA_Y88_R90Q_YF] | 0.81 | 1.31 | 0.435 | 0.483 | 0.57 | 0.474 | 0.494 | 0.795 | 1.15 | 0.654 | 0.993 | 0.742 | 0.563 | 0.837 | 0.78 | 0.421
GINDDYGQLKN [NBN_Y679] | 0.364 | 1.1 | 0.528 | 0.874 | 0.514 | 0.613 | 0.296 | 0.61 | 0.829 | 0.474 | 0.841 | 0.499 | 0.499 | 0.92 | 1.42 | 0.494
SRASYYRKGGC [ALK_Y1283_Y1278S] | 0.34 | 0.5 | 0.38 | 0.37 | 0.371 | 0.52 | 0.428 | 0.335 | 0.641 | 0.326 | 0.522 | 0.585 | 0.414 | 0.644 | 0.473 | 0.607
RLDPVYFVAPA [LAMC2_Y250] | 5.28 | 0.787 | 11.5 | 8.92 | 4.85 | 7.69 | 5.95 | 5.76 | 1.73 | 0.523 | 1.46 | 1.82 | 6.89 | 0.897 | 0.915 | 0.594
RGEKQYLATPL [ALOX12_Y295_A298T] | 0.598 | 1.01 | 0.665 | 0.484 | 0.342 | 0.812 | 0.53 | 0.711 | 0.931 | 0.571 | 0.861 | 1.02 | 1.06 | 0.784 | 0.766 | 0.569
EKSREYHRLYE [PIK3R1_Y463_D464H] | 0.428 | 0.616 | 0.498 | 0.539 | 0.435 | 0.519 | 0.525 | 0.466 | 0.637 | 0.432 | 0.538 | 0.52 | 0.455 | 0.647 | 0.589 | 6.12
ILKPDYQPLAI [HYDIN_Y1072] | 0.489 | 0.65 | 0.415 | 0.484 | 0.403 | 0.376 | 0.425 | 0.533 | 0.556 | 0.379 | 0.613 | 0.62 | 0.376 | 0.814 | 0.847 | 0.541
PLDVEYFTLQI [TP53_Y327_G325V] | 0.804 | 1.46 | 2.35 | 1.2 | 0.659 | 2.72 | 0.55 | 5.88 | 2.69 | 0.578 | 2.47 | 1.11 | 7.84 | 0.743 | 0.604 | 0.309
LVMFTYAIFGM [SCN1A_Y1684_I1683T] | 1.78 | 2.16 | 2.15 | 1.48 | 1.43 | 2.9 | 0.937 | 1.73 | 2.23 | 1.08 | 2.09 | 1.82 | 0.728 | 1.16 | 0.762 | 0.542
TMETKYDNISR [SETDB2_Y477_V473M] | 0.356 | 0.689 | 0.414 | 0.431 | 0.424 | 0.429 | 0.469 | 0.474 | 0.808 | 0.403 | 0.652 | 0.665 | 0.678 | 1.01 | 0.876 | 3.56
GIFSGYDDAWD [POLR1C_Y36_N32I_YF] | 0.51 | 1.14 | 0.551 | 0.547 | 0.651 | 0.514 | 0.481 | 0.7 | 1.07 | 0.477 | 1.1 | 0.746 | 0.531 | 0.968 | 0.695 | 4.13
